Data on six molecules can be found in patent publication US20220380455A1 (Alector, published 2022).

“And” between values parts separate entries of the source, which are not always exact repeats. Equal entries are not always repeated.

In one experiment the target is T1, MS4A6A ECL1 peptide (human).
T1 construct: the description elsewhere gives ECL1 as 68-84; Human and cyno ECL1 are said to be identical
T1 peptide: SASFSPNFTQVTSTLLNS
Description: peptide ELISA, hybridoma supernatant. As to the method: Anti-MS4A6A hybridoma supernatants were tested for binding to MS4A6A peptides derived from ECL1 (amino acid residues 68-85 of human MS4A6A of SEQ ID NO:1) and ECL2 (amino acid residues 138-185 of human MS4A6A of SEQ ID NO:1) sequences, using an enzyme-linked immunosorbent assay (ELISA). Briefly, 96-well polystyrene plates were coated with 1-10 μg/mL of synthetic free or BSA-conjugated peptides in coating buffer (0.05M carbonate buffer, pH9.6, Millipore Sigma C3041) overnight at 4° C. Coated plates were then blocked with ELISA diluent (PBS+0.5% BSA+0.05% Tween20) for 1-hour, washed 3×300 μL in PBST (PBS+0.05% Tween20, Thermo 28352), and then the antibodies were added at various dilutions (100-1000×) in ELISA diluent. After 30 mins incubation (room temperature, with shaking), the plates were washed 3×300 μl in PBST. A secondary anti-mouse HRP antibody (Jackson Immunoresearch CAT #115-035-003) was added at a 1:1000 dilution in ELISA diluent (50 μL/well) and incubated for 30 minutes at room temperature with shaking. After a final set of washes (3×300 μl in PBST), 50 μL of TMB substrate (BioFx TMBW-1000-01) was added and the reaction was then quenched after 5-10 mins with 50 μL of stop solution (BioFx BSTP-1000-01). The quenched reaction wells were detected for absorbance at […] with a BioTek Synergy Microplate Reader using GENS 2.04 software.
A general note: An ELISA detects its analyte on a solid surface through an enzyme-linked reagent.

Experiment [1] addresses T2, cynomolgus (cyno) MS4A6A (cynomolgus, UniProt Q9H2W1 1-246 (human entry)).
T2 construct: Full-length protein expressed in transfected HEK293, U937 or K562 cells (flow cytometry)
T2 chain: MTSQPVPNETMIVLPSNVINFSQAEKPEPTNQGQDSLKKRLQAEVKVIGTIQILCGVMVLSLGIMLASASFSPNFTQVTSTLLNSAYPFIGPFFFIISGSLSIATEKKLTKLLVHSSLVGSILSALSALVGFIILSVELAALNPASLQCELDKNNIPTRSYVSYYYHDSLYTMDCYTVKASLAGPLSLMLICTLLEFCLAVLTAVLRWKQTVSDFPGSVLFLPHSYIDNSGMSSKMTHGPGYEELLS
Description: flow cytometry, hybridoma supernatant, HEK293 transfected with cyno MS4A6A over parental HEK293; Screen 2. As for the experimental part: (§1) Positive clones were expanded and then rescreened for specificity against HEK293 cells overexpressing cyno MS4A6A and parental HEK293 cells. Briefly, previously prepared, cryopreserved transiently-transfected cells were labeled with LIVE/DEAD Fixable Aqua Dead Cell Stain Kit (ThermoFisher Scientific L34957) on ice for 30 minutes. After a wash with PBS, 2×10⁵ cells were aliquoted per well in 96-well round bottom plates and incubated with 50 μl of culture supernatant on ice for 30 mins. […] Following this secondary incubation, the cells were again washed twice with ice-cold FACS buffer and resuspended in a final volume of 200 μl of FACS buffer. Analysis was performed on a FACS Canto system (BD Biosciences), with sort gates drawn to exclude dead (Aqua-positive) cells. […] The screen was repeated twice, and the numbers reported here represent the ratio of mean fluorescence level in transfected cells over parental cells.
In general terms: A flow cytometer gives signals particle by particle.

In the next experiment the target is T3, MS4A6A ECL2 peptide (human).
T3 construct: also called MS4A6A ECL-2 peptides
T3 peptide: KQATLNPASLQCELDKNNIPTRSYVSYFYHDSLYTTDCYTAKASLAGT
Description: array SPR (Carterra MX-96), antibody captured on anti-mouse IgG-Fc, ECL2 peptide injected. As for the experimental part: Binding kinetic characterization of the purified antibodies to MS4A6A ECL1 and ECL2 peptides was performed by Carterra (South San Francisco, Calif.) using a proprietary array Surface Plasmon Resonance (SPR) instrument (MX-96) as follows. Antibodies were printed onto a CMD5OOD chip (Xantec #SPMX CMD500D lot #SC CMD500D0117.a Exp. 31.12.18) using the Continuous Flow Microspotter (CFM). First, the chip was activated with 100 mM MES pH 5.5, 100 μL EDC (133 mM final), 100 μL of S-NHS (33.3 mM final), for 7 minutes. A lawn of anti-mouse IgG-Fc (Jackson ImmunoResearch CAT #115-005-071 lot#130410) was injected for 15 minutes to establish a surface density of 10000-12000 RU, after which the chip surface was deactivated with 1 M ethanolamine at pH 8.5 for 10 minutes. Anti-MS4A6A antibodies in question, in the form of hybridoma supernatants diluted 2:1 with HBS-EP+buffer (Teknova CAT #H8022), were then printed as duplicates with a 20 minute and a 5 minutes print from the same sample solution. Control antibodies were diluted to 20 μ/ml for printing.
To perform kinetic analysis, the peptides in question were prepared in HBS-EP+buffer with lmg/ml BSA at final assay concentrations of 2000 nM, 400 nM, 80 nM, 16 nmM, and 3.2 nM. These were then injected on the chip for five minutes, followed by a seven-minute dissociation period at 8 uL per second in a non-regenerative kinetic series. Duplicate measurements for each anti-MS4A6A antibody were taken to ensure reproducibility.
Kₐ (association rate constant; Kₒₙ), Kd (dissociation rate constant; Koff) and KD (equilibrium constant) to MS4A6A ECL-2 peptides were calculated for each of the 23 anti-MS4A6A antibodies tested, the results of which are shown below in Table 5 (clones that bound too weakly to determine these values are denoted as N/A in Table 5).

Experiment [2] has as its target T2, cynomolgus (cyno) MS4A6A. Description: flow cytometry, hybridoma supernatant, HEK293 transfected with cyno MS4A6A over parental HEK293; Screen 1. As for the experimental part: as §1

B1: 6A-15 (antibody, V domains shown)
VH: EVMLVESGGGLVKPGGSLKLSCAASGFTFSSHAMSWVRQTPEKRLEWVATISSGDSYTYYPDSVKGRFTISRDNAKNTLYLQMTSLRSEDTAMYYCIRHIYYGNLYYAMDYWGQGTSVTVSS
VL: DVLMTQTPLSLPVSLGDQASISCRSSQSIIHNNGNTYLEWYLQKPGQSPKLLIYKVSNRFSGVPDRFSGSGSGTYFTLKISRVEADDLGVYYCFQGSHVPWTFGGGTKLEIK
notes: Mouse hybridoma antibody, tested as hybridoma supernatant (mouse IgG, detected or captured via anti-mouse IgG Fc); also called anti-MS4A6A antibody 6A-15
Consider B1, for which the binding result with MS4A6A ECL1 peptide is “no binding”. For the same molecule, in the experiment with cynomolgus (cyno) MS4A6A [1], the “ratio of APC MFI on MS4A6A+/HEK parental cells” value (“ratio of APC MFI” below) stood at 8.4 ratio. Further, in the experiment with MS4A6A ECL2 peptide, the Kd (as a rule, the constant that tells how readily two partners part at equilibrium) is 76 nM and 86 nM; the koff – broadly, a measure of how fast the partners let go of each other – is 0.00038 s⁻¹ and 0.00043 s⁻¹; the kon (usually the second-order rate constant of association) was found to be 5000 M⁻¹ s⁻¹. Besides, the “ratio of APC MFI” value with cynomolgus (cyno) MS4A6A [2] is 3.8 ratio.

B2: 6A-9 (antibody, V domains shown)
VH: EVQLQQSGPELVKPGASVKISCKASGYSFTGYYIHWVKESHVKSLEWIGRINPKNGVTSYNQNFKDKASLTVDRSSSTAYMDLYSLTSEDSAVYYCASTFITGWGQGTSLTVSS
VL: DVLLTQAPLSLPVSLGDQASISCRSSQTIVHSDGNTYLEWYLQKPGQSPKLLIYTVSNRFSGVPDRFSGSGSGTDFTLKISRVEAEDLGVYYCFQGSHVPWTFGGGTKLEIK
notes: Mouse hybridoma antibody, tested as hybridoma supernatant (mouse IgG, detected or captured via anti-mouse IgG Fc); also called anti-MS4A6A antibody 6A-9
For B2, the binding result in the experiment with MS4A6A ECL1 peptide is “no binding”. Besides, in the experiment with cynomolgus (cyno) MS4A6A [1], the “ratio of APC MFI” value was determined as 84 ratio. In the experiment with MS4A6A ECL2 peptide, the affinity, expressed as Kd, was 290 nM; the koff came to 0.0011 s⁻¹; the kon is 3900 M⁻¹ s⁻¹. In addition, the “ratio of APC MFI” value with cynomolgus (cyno) MS4A6A [2] was found to be 12.6 ratio.

B3: 6A-11 (antibody, V domains shown)
VH: EVQLQQSGPDLVKPGASVKISCKASGYSFTGYYIHWVKQSHIKSLEWIGRINPNNGATNYNQIFKDKATLTVDRSSSTAYMDLHSLTSEDSAVYYCVSTFITGWGQGTTLTVSS
VL: DVLLTQTPLSLPVSLGDQASISCRSSQTIVHSDGNTYLEWYLQRPGLSPKLLIYKVSIRFSGVPDRFSGSGSGTDFTLKISRVEAEDLGVYYCFQGSHVPWTFGGGTKLEIK
notes: Mouse hybridoma antibody, tested as hybridoma supernatant (mouse IgG, detected or captured via anti-mouse IgG Fc); also called anti-MS4A6A antibody 6A-11
Consider B3, for which the binding result in the experiment with MS4A6A ECL1 peptide is on record as “no binding”. Besides, the “ratio of APC MFI” value came out at 61.7 ratio in the experiment with cynomolgus (cyno) MS4A6A [1] and 8.6 ratio in the experiment with cynomolgus (cyno) MS4A6A [2].

B4: 6A-14 (antibody, V domains shown)
VH: QVQLKQSGPGLVQPSQSLSITCTVSGFSLTTYGVHWVRQSPGKGLEWLGVIWSGGSTDYNAAFISRLNISKDNSKSQVFFKMNSLQANDTAIYYCARGYGSSYEYFDVWGAGTTVTVSS
VL: DIVLTQSPASLAVSLGQRATISCRASESVDSYGNSFMHWYQQKPGQPPKLLIYRASNLESGIPARFSGSGSRTDFTLTINPVEADDVATYYCQQSNEDPLTFGAGTKLELK
notes: Mouse hybridoma antibody, tested as hybridoma supernatant (mouse IgG, detected or captured via anti-mouse IgG Fc); also called anti-MS4A6A antibody 6A-14
Consider B4, for which the binding result in the experiment with MS4A6A ECL1 peptide was “no binding”. In the experiment with cynomolgus (cyno) MS4A6A [1], the “ratio of APC MFI” value turned out to be 59.1 ratio. In addition, in the experiment with MS4A6A ECL2 peptide, the Kd is 170 nM and 150 nM; the dissociation rate constant (koff) is 0.00096 s⁻¹ and 0.001 s⁻¹; the kon is 5700 M⁻¹ s⁻¹ and 6900 M⁻¹ s⁻¹. For the same molecule, the “ratio of APC MFI” value with cynomolgus (cyno) MS4A6A [2] was determined as 20.2 ratio.

B5: 6A-13 (antibody, V domains shown)
VH: EVKVVESGGGLVQPGGSLRLSCATAGFTFTDYYMTWVRQPPGKALEWLGFIRNKANGYTTEYNSSVKGRFTISRDNSRSILYLQMNTLRAEDSATYYCARSMDYWGQGTSVTVSS
VL: NIVMTQSPNSMSMSVGERVTLSCKASENVGTYVSWYQQKPDQSPKLLIYGASNRYTGVPDRFTGGGSATDFTLTISSVQAEDLADYHCGQTYSFPYTFGGGTKLEIK
notes: Mouse hybridoma antibody, tested as hybridoma supernatant (mouse IgG, detected or captured via anti-mouse IgG Fc); also called anti-MS4A6A antibody 6A-13
As to B5, the binding result with MS4A6A ECL1 peptide is listed as “no binding”. In addition, in the experiment with cynomolgus (cyno) MS4A6A [1], the “ratio of APC MFI” value stood at 30.3 ratio. In the experiment with MS4A6A ECL2 peptide, the Kd is 140 nM and 180 nM; the koff was 0.00066 s⁻¹ and 0.00092 s⁻¹; the kon is 4800 M⁻¹ s⁻¹ and 5300 M⁻¹ s⁻¹. Further, the “ratio of APC MFI” value in the experiment with cynomolgus (cyno) MS4A6A [2] amounted to 24.8 ratio.

B6: 6A-12 (antibody, V domains shown)
VH: EVQLQQSGPELVKPGASVKISCKASGYSFTGYYMHWVKQSPEDSLEWIGAINPSTGGSTYSQKFKDKATLTVDKSSSTAYMQLKSLTSEESAVYYCTRFDGYGYWGQGTLVTVSS
VL: DIVMTQAAFSNPVTLGTSASISCRSSKSLLHSNGITYLYWYLQKPGQSLQLLIYQMSNLASGVPDRFSGSGSGTDFTLRISRVEAEDVGVYYCAQNLELPWTFGGGTKLEIK
notes: Mouse hybridoma antibody, tested as hybridoma supernatant (mouse IgG, detected or captured via anti-mouse IgG Fc); also called anti-MS4A6A antibody 6A-12
With B6, the binding result in the experiment with MS4A6A ECL1 peptide is given as “no binding”. For the same molecule, the “ratio of APC MFI” value in the experiment with cynomolgus (cyno) MS4A6A [1] worked out at 45.5 ratio. In the experiment with MS4A6A ECL2 peptide, the Kd was 160 nM and 130 nM; the koff was 0.00081 s⁻¹ and 0.00067 s⁻¹; the kon was 5200 M⁻¹ s⁻¹ and 5100 M⁻¹ s⁻¹. The “ratio of APC MFI” value in the experiment with cynomolgus (cyno) MS4A6A [2] is 40.3 ratio.
